Literature values in paper PMC4698235.

Key:
IDE (Homo sapiens) = IDE (Homo sapiens) (UniProt P14735)
insulin (Homo sapiens) = insulin (Homo sapiens) (UniProt P01308)
Chain of UniProt P01308 (P01308 90-110): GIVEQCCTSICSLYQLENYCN

IDE (from UniProt P14735)
Kd (IDE (Homo sapiens)): 10 nM | Kd (insulin (Homo sapiens)): 10 nM
